Consider two molecules from article doi:10.1101/2025.08.25.672131, “A basic leucine zipper uses a dimer pathway to locate its targets in DNA mixtures”.

One series deals with T1, Jun bZIP-ΔLZ (human, UniProt P05412 246-284).
T1 chain: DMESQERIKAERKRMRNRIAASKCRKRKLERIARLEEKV
Kind of series: fluorescence anisotropy; monomer; Stopped-flow at 25 C; assay buffer not stated in the material (protein storage: 10 mM MES pH 6.5 or, for the forced-monomer bZIP-ΔLZ prep, 10 mM HEPES pH 7.4, with 150 mM NaCl, 10 mM MgCl2; 0.05% Tween-20 in the MES buffer). The note with it: protein: recombinant; tags: N-terminal G left after TEV cleavage; label: 5' Alexa Fluor 488; blunt.

Another series deals with T2, CREB-bZIP-ΔLZ (human, UniProt P16220-1 277-315, C300S;C310S).
T2 chain: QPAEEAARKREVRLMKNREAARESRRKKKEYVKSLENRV
The series is described as above. The note with it: protein: recombinant; tags: N-terminal G left after TEV cleavage; label: 5' Alexa Fluor 488; blunt.

B1: Alexa Fluor 488 target for Jun, JunD, Fos (dsDNA)
DNA 1: GGATGAGTCATTGG
DNA 2: CCAATGACTCATCC
As a reminder, the Kd is the free concentration of one partner at which half of the binding sites on the other are occupied at equilibrium, for simple one-to-one binding. As for B1, the dissociation constant (Kd) with Jun bZIP-ΔLZ is 0.22 ± 0.03 µM.

B2: Alexa Fluor 488-Comp (dsDNA)
DNA 1: GGCTAAAGCATTCT
DNA 2: AGAATGCTTTAGCC
Take B2: the Kd in the series with CREB-bZIP-ΔLZ was 440 ± 30 µM.
